The values below come from the Immune Epitope Database (IEDB).

One may read the Kd as the equilibrium constant for the complex coming apart. A low value points to tighter binding.

The target of experiment [1] is HLA-B*40:01. The experiment is described as follows: IEDB peptide-MHC binding, purified MHC/competitive/fluorescence; filed as Kd, often an IC50 or EC50 that approximates it; ≥ and ≤ were set here for values at or beyond the usual limits of such assays.
Experiment [2] addresses HLA-B*15:01. The description is as above.
For a further experiment, the target named is HLA-C*14:02. As to the kind of experiment: IEDB peptide-MHC binding, purified MHC/direct/fluorescence; filed as Kd, often an IC50 or EC50 that approximates it; ≥ and ≤ were set here for values at or beyond the usual limits of such assays. The note with it: source organism: Salmonella enterica subsp. enterica serovar Typhi str. CT18.
For experiment [3], the target named is HLA-B*39:01. Described as above.
Another experiment deals with HLA-B*15:09. Described as above.
In another experiment the target is HLA-A*02:03. As to the kind of experiment: IEDB peptide-MHC binding, purified MHC/competitive/fluorescence; filed as Kd, often an IC50 or EC50 that approximates it; ≥ and ≤ were set here for values at or beyond the usual limits of such assays. The note with it: source organism: Francisella tularensis subsp. tularensis FSC198.
For experiment [4], the target named is HLA-B*08:01. Described as above. The note with it: source organism: Francisella tularensis subsp. tularensis FSC198.
Another experiment addresses HLA-A*26:02. The description is as above. The note with it: source organism: Francisella tularensis subsp. tularensis FSC198.
Experiment [5] has as its target HLA-A*68:02. As to the kind of experiment: IEDB peptide-MHC binding, purified MHC/direct/fluorescence; filed as Kd, often an IC50 or EC50 that approximates it; ≥ and ≤ were set here for values at or beyond the usual limits of such assays. The following applies: source organism: Francisella tularensis subsp. holarctica LVS.
The target of another experiment is HLA-B*18:01. Described as above.
The target of the next experiment is HLA-A*01:01. The description is as above.
A further experiment concerns the target HLA-B*15:17. The description is as above.
Another experiment addresses HLA-B*27:05. The description is as above.
Another experiment has as its target HLA-A*69:01. The experiment is described as above.
The target of another experiment is HLA-B*58:01. Described as above.
The next experiment deals with HLA-A*11:01. Described as above.
Another experiment has as its target HLA-B*07:02. Described as above.
Another experiment has as its target HLA-A*31:01. Described as above.
Another experiment deals with HLA-B*57:01. Described as above.
A further experiment concerns the target HLA-B*48:01. The description is as above. The note with it: source organism: Francisella tularensis subsp. holarctica LVS.
The target of a further experiment is HLA-C*12:03. The experiment is described as above. The note with it: source organism: Yersinia frederiksenii ATCC 33641.
Another experiment deals with HLA-C*03:03. The experiment is described as above. The note with it: source organism: Yersinia frederiksenii ATCC 33641.
A further experiment deals with HLA-C*15:02. The description is as above. The note with it: source organism: Yersinia frederiksenii ATCC 33641.
Another experiment concerns the target HLA-A*02:11. The experiment is described as follows: IEDB peptide-MHC binding, purified MHC/competitive/fluorescence; filed as Kd, often an IC50 or EC50 that approximates it; ≥ and ≤ were set here for values at or beyond the usual limits of such assays. The following applies: source organism: Haemophilus influenzae 22.1-21.
In the next experiment the target is HLA-A*02:12. Described as above. The following applies: source organism: Haemophilus influenzae 22.1-21.
Experiment [6] addresses HLA-A*02:01. As to the kind of experiment: IEDB peptide-MHC binding, purified MHC/direct/fluorescence; filed as Kd, often an IC50 or EC50 that approximates it; ≥ and ≤ were set here for values at or beyond the usual limits of such assays.
Experiment [7] addresses HLA-A*02:01. The experiment is described as follows: IEDB peptide-MHC binding, purified MHC/competitive/fluorescence; filed as Kd, often an IC50 or EC50 that approximates it; ≥ and ≤ were set here for values at or beyond the usual limits of such assays. The following applies: source organism: Yersinia pestis Nepal516.
The target in experiment [8] is HLA-B*39:01. The description is as above. The note with it: source organism: Yersinia pestis Nepal516.
For another experiment, the target named is HLA-A*30:01. As to the kind of experiment: IEDB peptide-MHC binding, purified MHC/direct/fluorescence; filed as Kd, often an IC50 or EC50 that approximates it; ≥ and ≤ were set here for values at or beyond the usual limits of such assays. The following applies: source organism: Vibrio parahaemolyticus.
Another experiment addresses HLA-A*26:01. Described as above.
Experiment [9] deals with HLA-B*40:01. Described as above. The note with it: source organism: Vibrio parahaemolyticus.
The target in the next experiment is HLA-A*03:01. The description is as above.
The target in the next experiment is HLA-B*35:01. The description is as above. The following applies: source organism: Vibrio parahaemolyticus.
Experiment [10] concerns the target HLA-B*08:01. The experiment is described as above.
Experiment [11] has as its target HLA-B*15:01. Described as above.
The target in another experiment is HLA-B*44:02. The description is as above. The note with it: source organism: Vibrio parahaemolyticus.
Experiment [12] has as its target HLA-A*68:02. As to the kind of experiment: IEDB peptide-MHC binding, purified MHC/competitive/fluorescence; filed as Kd, often an IC50 or EC50 that approximates it; ≥ and ≤ were set here for values at or beyond the usual limits of such assays. The note with it: source organism: Bacillus anthracis str. A2012.
In another experiment the target is HLA-A*24:03. The experiment is described as follows: IEDB peptide-MHC binding, purified MHC/direct/fluorescence; filed as Kd, often an IC50 or EC50 that approximates it; ≥ and ≤ were set here for values at or beyond the usual limits of such assays. The following applies: source organism: Bacillus anthracis.
The next experiment deals with HLA-A*24:02. The experiment is described as above. The following applies: source organism: Bacillus anthracis.
A further experiment has as its target HLA-A*23:01. The description is as above. The note with it: source organism: Bacillus anthracis.
Where [13] appears, read: source organism: Escherichia coli B171.
The mark [14] stands for this setting: source organism: Francisella tularensis subsp. holarctica LVS.
The mark [15] stands for this setting: source organism: Francisella tularensis subsp. tularensis FSC033.
The mark [16] stands for this setting: source organism: Haemophilus influenzae.
The mark [17] stands for this setting: source organism: Yersinia pestis Nepal516.
[18] abbreviates: source organism: Vibrio parahaemolyticus.
[19] abbreviates: source organism: Bacillus anthracis.
Where [20] appears, read: source organism: Bacillus anthracis str. A0465.

Regarding AELRLVHEL, the Kd in the experiment with HLA-B*40:01 [1] (setting [13]) was 0.0069 µM; with HLA-B*15:01 [2] (setting [13]), not below 20 µM.

AETLMAQPF: the dissociation constant (Kd) in the experiment with HLA-B*40:01 [1] (source organism: Salmonella enterica subsp. enterica serovar Typhi) was found to be 0.0122 µM; with HLA-C*14:02, 2.31 µM.

Consider EHIPTMKIF, for which the Kd came to 1.34 µM with HLA-B*39:01 [3] (source organism: Camelpox virus M-96) and 0.304 µM with HLA-B*15:09 (source organism: Variola virus).

Sequence HHSLTHHQL registered a Kd with HLA-B*15:09 (source organism: Escherichia coli O157:H7 str. EC869) of 0.002 µM.

As to KRINSLIKY, the dissociation constant (Kd) with HLA-A*02:03 was 2.47 µM; in the experiment with HLA-B*08:01 [4] it was not below 20 µM; with HLA-A*26:02, not below 20 µM; with HLA-B*15:01 [2] (source organism: Francisella tularensis subsp. tularensis FSC198) it was 3 µM; with HLA-A*68:02 [5], not below 20 µM; with HLA-B*18:01 (setting [14]) it was not below 20 µM. Moreover, the dissociation constant (Kd) in the experiment with HLA-A*01:01 (setting [14]) was not below 20 µM; with HLA-B*15:17 (setting [14]), not below 20 µM; with HLA-B*39:01 [3] (setting [15]), not below 20 µM; with HLA-B*27:05 (setting [14]), 0.132 µM; in the experiment with HLA-A*69:01 (setting [14]), not below 20 µM; with HLA-B*58:01 (setting [14]) it was not below 20 µM. In addition, the Kd in the experiment with HLA-A*11:01 (setting [14]), in the experiment with HLA-B*07:02 (setting [14]), with HLA-A*31:01 (setting [14]), with HLA-B*57:01 (setting [14]), with HLA-B*15:09 (setting [15]) and with HLA-B*48:01 was not below 20 µM each time.

Take LAIEATLAF: the values for the Kd with HLA-C*12:03, with HLA-C*03:03 and with HLA-C*15:02 were 1.04 µM, not below 20 µM and not below 20 µM, respectively.

With RFLEDYFGV, the Kd is 0.0041 µM with HLA-A*02:11; 0.0443 µM in the experiment with HLA-A*02:12; 0.141 µM with HLA-A*02:01 [6] (setting [16]); 0.547 µM with HLA-A*69:01 (setting [16]); 0.558 µM in the experiment with HLA-A*31:01 (setting [16]).

SQMGLSCAL: the dissociation constant (Kd) with HLA-A*02:01 [7] is 0.0046 µM; with HLA-B*39:01 [8] it was 0.0035 µM; in the experiment with HLA-B*40:01 [1] (setting [17]), 0.567 µM; with HLA-B*15:01 [2] (setting [17]) it was 0.0976 µM.

With VMETENALF, the Kd with HLA-A*30:01 was not below 44.8 µM; with HLA-A*02:01 [6] (setting [18]) it was not below 20 µM; with HLA-A*26:01 (setting [18]) it was not below 20 µM; in the experiment with HLA-A*01:01 (setting [18]) it was 5.02 µM; with HLA-B*27:05 (setting [18]) it was not below 20 µM; in the experiment with HLA-A*69:01 (setting [18]), not below 20 µM. For the same sequence, the Kd in the experiment with HLA-A*11:01 (setting [18]) is not below 20 µM; in the experiment with HLA-B*40:01 [9], not below 20 µM; with HLA-A*03:01 (setting [18]) it was not below 20 µM; with HLA-B*35:01 it was 0.427 µM; with HLA-B*08:01 [10] (setting [18]), not below 20 µM; in the experiment with HLA-A*31:01 (setting [18]) it was not below 20 µM. For the same sequence, the Kd was 0.301 µM in the experiment with HLA-B*15:01 [11] (setting [18]) and not below 20 µM in the experiment with HLA-B*44:02.

With YFENSDLNL, the Kd was not below 20 µM with HLA-A*68:02 [12]; 0.13 µM with HLA-A*24:03; not below 20 µM in the experiment with HLA-B*18:01 (setting [19]); not below 20 µM with HLA-A*02:01 [6] (setting [19]); not below 20 µM in the experiment with HLA-A*26:01 (setting [20]); not below 20 µM with HLA-A*01:01 (setting [19]). Further, the Kd with HLA-B*15:17 (setting [19]), in the experiment with HLA-B*39:01 [3] (setting [20]), with HLA-B*27:05 (setting [19]), with HLA-B*58:01 (setting [19]), with HLA-A*11:01 (setting [19]) and in the experiment with HLA-B*07:02 (setting [19]) was not below 20 µM throughout. For the same sequence, the dissociation constant Kd with HLA-A*03:01 (setting [19]) was not below 20 µM; with HLA-B*08:01 [10] (setting [20]), not below 20 µM; with HLA-A*31:01 (setting [19]), not below 20 µM; in the experiment with HLA-A*24:02, 7.5 µM; with HLA-B*57:01 (setting [19]), not below 20 µM; with HLA-A*23:01, 0.65 µM. The Kd with HLA-B*15:09 (setting [20]) was not below 20 µM; in the experiment with HLA-B*15:01 [11] (setting [19]), not below 5 µM.
